Holding throughout (type): physicochemical
Data set [1] can be described thus: Modified Wilhelmy surface balance (Langmuir trough): dynamic surface tension vs compressed surface area. Conditions: 37° C.; for Equilibrum (equilibrium adsorption value): after a three (3) minute spreading time, total peptide 0.5 mg/ml; for Wilhelmy-Langmuir Trough Max (maximum dynamic surface tension) / Wilhelmy-Langmuir Trough Min (minimum dynamic surface tension): peptide/lipid admixture, total peptide 0.5 mg/ml (2%; two peptides 0.25 mg/ml each), 675 μg phospholipid, seven compression-expansion cycles, average of 3 runs. From the text:
The dynamic surface tension lowering properties of the peptide/lipid admixtures were studied using a modified Wilhelmy Surface Balance (Langmuir Trough). The instrument consists of an all Teflon trough and movable Teflon ribbon (dam) barrier system which completely contains and defines a variable surface area. Surface area was varied through the use of a constant rate reversible 3-phase motor to drive the Teflon barrier. A Cahn 2000 electrobalance (Cahn Instruments, Cerittos, Calif.) with a sandblasted 1 cm platinum plate and stainless steel hangdown wire was employed to determine the surface tension at the liquid-air interface. The entire apparatus was situated in a thermostated incubator set at 45° C. Surface area-surface tension measurements were made by adding 950 ml of 0.15 M NaCl to the trough. Subphase temperature was controlled during the measurements at 36-38° C.
For each experiment 27 ul of peptide/lipid admixture was applied in a random array of 13 (.congruent.2 ul) droplets to the surface of the temperature controlled subphase and allowed to spread spontaneously for 3 minutes. (The 27 ul application corresponds to 675 ug of phospholipid). The trough surface area was then cycled from a maximum (445 sq. cm) to a minimum (178 sq. cm) surface area and back to maximum at a cycling rate of 3 cycles/min (compression ratio 2.5:1). The dynamic surface tension vs surface area was recorded for 7 complete compression-expansion cycles for each application.

A short description of data set [2]: Adsorption rate, King-Clements system (Wilhelmy balance, stirred Teflon dish). Conditions: 10 ml of diluted sample (1:50) added under constant agitation to 70 ml saline subphase; 37° C.; total peptide 0.5 mg/ml. As for the experimental part:
A procedure similar to that described by Notter, et al., Pediatric Res. 16, 515-519, (1982) was employed to determine the absorption rate in the absence of diffusion resistance. The modified Wilhelmy surface balance as described above was used. However, instead of using a Langmuir trough a round Teflon dish (5.1 cm diameter) was employed. The subphase, 70 ml of 0.15 M NaCl, was allowed to equilibrate to 37° C. in the incubator and was continuously stirred with a Teflon coated magnetic stirer. An aliquot of the peptide/lipid admixture containing 5 mg of total phospholipid was dispersed in 10 ml of 0.15 M NaCl by vortexing for 10 seconds. This dispersion was then added to the saline subphase. Surface tension lowering was monitored using a strip chart recorder connected to the electrobalance output and data collected for 20 minutes.

Data set [3] is described as follows: Pulsating bubble surfactometer (PBS). Conditions: after 100 cycles (5 minutes, 20 cycles/minute); phospholipid 1 mg/ml; 37° C.; […] NaCl; mean of triplicate. As for the experimental part: The PBS equipment (Electronetics, Buffalo, N.Y.) used was essentially equivalent to that described in detail by G. Enhorning, J. Appid. Physiol. 43, 198-203, (1977). Recordings were made of the pressure gradient across the wall of a small air bubble, communicating with ambient air by means of a narrow chimney stack, but otherwise entirely surrounded by a 40 ul volume of the peptide/lipid admixture. The admixture concentration employed for these studies was 1 mg/ml total phospholipid (0.02 mg/ml total peptide) and the diluent was 0.15 M NaCl. Immediately prior to loading the sample chamber, the diluted samples were sonicated for 15 seconds to remove any gas nuclei.
The pressure drop across the air-water interface was measured during pulsation by a pressure transducer, and the corresponding surface tension determined through the application of Young's law and the Laplace equation. Measurements were all made at 37° C. and the bubble pulsed at 20 cycles/minute to render respectively a maximum (1.1. mm) and a minimum (0.8 mm) bubble diameter. (This compression/expansion corresponds to a 50% change in the surface area of the air-water interface).

Ends that are not written are not given here.

Turning to “SPB (53-78): synthetic C-terminal SP-B fragment (YSVILLDTLLGRMLPQLVCRLVLRCS; ends and bridges not checked; cysteine pairing not given here; UniProt P07988 253-278, looked up, fragment)”, in data set [1], the “Equilibrum (equilibrium adsorption value)” value turned out to be 40.0 dynes/cm, the “Wilhelmy-Langmuir Trough Max (maximum dynamic surface tension)” value was determined as 49.3 dynes/cm and the “Wilhelmy-Langmuir Trough Min (minimum dynamic surface tension)” value came to 0.1 dynes/cm. For the same molecule, in data set [2], the “King-Clements Adsorption (surface tension)” value is recorded as 45.0 dynes/cm. Moreover, in data set [3], the “Surface Tension Values Maximum (pulsating bubble apparatus)” value turned out to be 55.5 dynes/cm and the “Surface Tension Values Minimum (pulsating bubble apparatus)” value is on record as 4.9 dynes/cm.

B1: SPB (1-78): synthetic full length SP-B peptide, sequence based on natural SP-B (peptide, UniProt P07988 201-279, looked up)
Pulmonary …: FPIPLPYCWLCRALIKRIQAMIPKGALAVAVAQVCRVVPLVAGGICQCLAERYSVILLDTLLGRMLPQLVCRLVLRCSM
modifications: Pulmonary surfactant-associated protein B
On to B1, for which, in data set [1], the “Equilibrum (equilibrium adsorption value)” value stood at 38.0 dynes/cm, the “Wilhelmy-Langmuir Trough Max (maximum dynamic surface tension)” value amounted to 45.0 dynes/cm and the “Wilhelmy-Langmuir Trough Min (minimum dynamic surface tension)” value came out at 0.0 dynes/cm. In addition, the “King-Clements Adsorption (surface tension)” value in data set [2] amounted to 30.0 dynes/cm. In data set [3], the “Surface Tension Values Maximum (pulsating bubble apparatus)” value turned out to be 49.0 dynes/cm and the “Surface Tension Values Minimum (pulsating bubble apparatus)” value is listed as 4.2 dynes/cm.

The values above are taken from patent publication US6022955A, “Fatty acid -- pulmonary surfactant conjugates” (Abbott Laboratories, priority 1991, dated 2000).
